Article PMC7367684, “Mechanical inhibition of isolated Vo from V/A-ATPase for proton conductance” (eLife, 2020)

T1: a subunit of the Thermus thermophilus V/A-ATPase (Thermus thermophilus, UniProt Q5SIT6 1-652)
T1 construct: a subunit (subunit I) of the V/A-ATPase of Thermus thermophilus, strain HB8; soluble arm domain asol and C-terminal hydrophobic domain aCT (membrane domain printed as A327-E637); also called asol (soluble arm domain); aCT (membrane-embedded C-terminal region)
T1 sequence: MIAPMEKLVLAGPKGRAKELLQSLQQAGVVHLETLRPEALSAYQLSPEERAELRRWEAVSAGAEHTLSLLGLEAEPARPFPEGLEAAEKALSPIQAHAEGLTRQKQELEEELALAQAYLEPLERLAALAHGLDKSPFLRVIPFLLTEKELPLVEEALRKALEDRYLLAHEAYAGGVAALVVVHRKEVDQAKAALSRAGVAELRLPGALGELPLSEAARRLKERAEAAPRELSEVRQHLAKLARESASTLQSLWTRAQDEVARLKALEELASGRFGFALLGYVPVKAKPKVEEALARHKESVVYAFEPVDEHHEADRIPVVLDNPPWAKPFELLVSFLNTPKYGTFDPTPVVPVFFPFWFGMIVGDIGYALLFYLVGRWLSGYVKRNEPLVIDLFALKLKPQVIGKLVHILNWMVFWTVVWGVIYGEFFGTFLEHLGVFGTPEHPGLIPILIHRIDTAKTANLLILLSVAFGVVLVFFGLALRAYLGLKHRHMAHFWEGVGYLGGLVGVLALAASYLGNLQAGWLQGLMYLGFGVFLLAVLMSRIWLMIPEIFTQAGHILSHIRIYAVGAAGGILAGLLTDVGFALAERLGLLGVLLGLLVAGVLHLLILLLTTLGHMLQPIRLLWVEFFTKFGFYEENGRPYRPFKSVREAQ

B1: D subunit of the Thermus thermophilus V/A-ATPase (natural protein)
chain: MSQVSPTRMNLLQRRGQLRLAQKGVDLLKKKRDALVAEFFGLVREAMEARKALDQAAKEAYAALLLAQAFDGPEVVAGAALGVPPLEGVEAEVENVWGSKVPRLKATFPDGALLSPVGTPAYTLEASRAFRRYAEALIRVANTETRLKKIGEEIKKTTRRVNALEQVVIPGIRAQIRFIQQVLEQREREDTFRLKRIKGKIEAREAEEEGGRPNPQVEIGAGL
notes: D subunit (central shaft) of the V/A-ATPase of Thermus thermophilus, strain HB8; holds the short helix called screw driver helix (SDH); also called subunit D; axis subunit of the V1 domain; source: T. thermophilus membranes, V/A-ATPase purified (Ni-NTA by the His3 tag on the c-subunit, Resource Q), in nanodiscs
B2: d subunit of the Thermus thermophilus V/A-ATPase (natural protein)
chain: MADDFAYLNARVRVRRGTLLKESFFQEALDLSFADFLRLLSETVYGGELAGQGLPDVDRAVLRTQAKLVGDLPRLVTGEAREAVRLLLLRNDLHNLQALLRAKATGRPFEEVLLLPGTLREEVWRQAYEAQDPAGMAQVLAVPGHPLARALRAVLRETQDLARVEALLAKRFFEDVAKAAKGLDQPALRDYLALEVDAENLRTAFKLQGSGLAPDAFFLKGGRFVDRVRFARLMEGDYAVLDELSGTPFSGLSGVRDLKALERGLRCVLLKEAKKGVQDPLGVGLVLAYVKEREWEAVRLRLLARRAYFGLPRAQVEEEVVCP
notes: d subunit (subunit C) of the V/A-ATPase of Thermus thermophilus, strain HB8
B3: F subunit of the Thermus thermophilus V/A-ATPase (natural protein)
chain: MAVIADPETAQGFRLAGLEGYGASSAEEAQSLLETLVERGGYALVAVDEALLPDPERAVERLMRGRDLPVLLPIAGLKEAFQGHDVEGYMRELVRKTIGFDIKL
notes: F subunit (central shaft) of the V/A-ATPase of Thermus thermophilus, strain HB8; also called subunit F; source: T. thermophilus membranes, V/A-ATPase purified (Ni-NTA by the His3 tag on the c-subunit, Resource Q), in nanodiscs
B4: c subunit of the Thermus thermophilus V/A-ATPase (c12 rotor ring) (natural protein)
chain: AEEAAASGGLDRGLIAVGMGLAVGLAALGTGVAQARIGAAGVGAIAEDRSNFGTALIFLLLPETLVIFGLLIAFILNGRL
notes: c subunit (subunit K/L, proteolipid) of the V/A-ATPase of Thermus thermophilus, strain HB8; chains Y and Z of the model are named in the text; Stands as a ring of twelve copies in Vo; also called c12 ring; c-ring; not shown: His3, C-terminal, kept; copies: 12

Assays:
[1] = biological target: B2; assay: cryo-EM structure; holo V/A-ATPase (His3 tag on the c subunit) in nanodiscs (MSP1E3D1, POPC), 20 mM Tris-HCl pH 8.0, 150 mM NaCl, 2 mM MgCl2; Titan Krios, Falcon II; rotational state 1, 3.6 Å overall, 3.5 Å focused map of A3B3DFE2G2dasol; conditions: both partners purified
[2] = biological target: T1, a subunit of the Thermus thermophilus …; assay: cryo-EM structure; isolated Vo (His3 tag on the c subunit) in nanodiscs (MSP1E3D1, DMPC by the methods), 20 mM Tris-HCl pH 8.0, 150 mM NaCl; CRYOARM200, K2 Summit; 3.9 Å; conditions: both partners purified
[3] = biological target: B1; assay: cryo-EM structure; holo V/A-ATPase (His3 tag on the c subunit) in nanodiscs (MSP1E3D1, POPC), 20 mM Tris-HCl pH 8.0, 150 mM NaCl, 2 mM MgCl2; Titan Krios, Falcon II; rotational state 1, 3.6 Å overall, 3.5 Å focused map of A3B3DFE2G2dasol; conditions: both partners purified
[4] = biological target: the molecule itself; assay: cryo-EM structure; isolated Vo (His3 tag on the c subunit) in nanodiscs (MSP1E3D1, DMPC by the methods), 20 mM Tris-HCl pH 8.0, 150 mM NaCl; CRYOARM200, K2 Summit; 3.9 Å

Binder: B1
- binding result [1]: binds

Binder: B2
- binding result [2]: binds

Binder: B3
- binding result [3]: binds

Binder: B4
- stoichiometry N [4]: 12
